Test results as given in patent US20120251557A1 (VERENIGING VOOR CHRISTELIJK HOGER ONDERWIJS …, published 2012).

Legend:
[1] = molecular target: A-containing CD45 isoforms from PBL (detected with anti-CD45RA); assay: ELISA: MGL-Fc-coated plate captures ligands from PBL lysate, detection with anti-CD45RA; + = low binding (OD 450 nm <0.25)
[2] = molecular target: C-containing CD45 isoforms from PBL (detected with anti-CD45RC); assay: ELISA: MGL-Fc-coated plate captures ligands from PBL lysate, detection with anti-CD45RC; ++ = high binding (OD 450 nm >0.25)
[3] = molecular target: CD45 on human peripheral blood lymphocytes (PBL) (human) (UniProt P08575); assay: ELISA: MGL-Fc-coated plate captures ligands from PBL lysate, detection with panCD45 antibody; ++ = high binding (OD 450 nm >0.25)
Sequence of CD45 on human peripheral blood lymphocytes (PBL) (human) (P08575 26-1306): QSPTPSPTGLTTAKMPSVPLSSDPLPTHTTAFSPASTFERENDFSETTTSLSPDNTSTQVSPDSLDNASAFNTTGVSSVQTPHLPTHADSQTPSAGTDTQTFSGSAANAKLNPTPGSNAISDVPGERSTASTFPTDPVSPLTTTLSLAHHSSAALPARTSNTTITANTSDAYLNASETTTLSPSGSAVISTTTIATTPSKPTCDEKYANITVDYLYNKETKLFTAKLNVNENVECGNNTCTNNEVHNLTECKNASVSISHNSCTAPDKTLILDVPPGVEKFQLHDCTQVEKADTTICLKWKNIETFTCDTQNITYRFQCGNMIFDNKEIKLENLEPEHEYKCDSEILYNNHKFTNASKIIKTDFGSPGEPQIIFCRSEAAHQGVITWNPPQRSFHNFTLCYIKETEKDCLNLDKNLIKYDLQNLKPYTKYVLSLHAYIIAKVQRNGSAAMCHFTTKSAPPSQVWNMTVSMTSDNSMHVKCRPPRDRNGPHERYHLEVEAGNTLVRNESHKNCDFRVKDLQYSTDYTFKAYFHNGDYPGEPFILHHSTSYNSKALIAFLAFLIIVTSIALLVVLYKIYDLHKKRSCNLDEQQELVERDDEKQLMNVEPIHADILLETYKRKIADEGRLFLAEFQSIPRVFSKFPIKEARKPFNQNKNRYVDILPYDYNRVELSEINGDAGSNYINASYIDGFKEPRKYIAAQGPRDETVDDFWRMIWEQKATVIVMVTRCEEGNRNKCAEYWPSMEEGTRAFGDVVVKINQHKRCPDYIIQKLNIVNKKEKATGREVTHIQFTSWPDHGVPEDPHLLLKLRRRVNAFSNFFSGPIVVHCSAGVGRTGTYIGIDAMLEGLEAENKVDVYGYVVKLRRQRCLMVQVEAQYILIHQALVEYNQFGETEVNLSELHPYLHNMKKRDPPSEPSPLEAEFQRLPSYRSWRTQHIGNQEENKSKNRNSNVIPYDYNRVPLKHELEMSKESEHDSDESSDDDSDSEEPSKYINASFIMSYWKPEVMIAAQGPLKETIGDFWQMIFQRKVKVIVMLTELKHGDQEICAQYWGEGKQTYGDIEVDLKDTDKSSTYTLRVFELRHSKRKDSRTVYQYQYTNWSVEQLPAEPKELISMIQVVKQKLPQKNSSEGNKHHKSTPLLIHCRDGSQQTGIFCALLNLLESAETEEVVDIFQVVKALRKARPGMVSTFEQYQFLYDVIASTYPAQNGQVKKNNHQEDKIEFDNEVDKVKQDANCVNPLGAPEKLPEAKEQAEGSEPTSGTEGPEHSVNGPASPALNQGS

[4] = molecular target: B-containing CD45 isoforms from PBL (detected with anti-CD45RB); assay: ELISA: MGL-Fc-coated plate captures ligands from PBL lysate, detection with anti-CD45RB; ++ = high binding (OD 450 nm >0.25)
[5] = molecular target: human CD45ABC isoform in transfected murine 300-19 cells (human) (UniProt P08575); assay: ELISA: isoform pulled down from transfectant lysate with panCD45 antibody, probed with MGL-Fc; ++ = high binding (OD 450 nm >0.25)
Sequence of human CD45ABC isoform in transfected murine 300-19 cells (human) (P08575 26-1306): as above

[6] = molecular target: human CD45B isoform in transfected murine 300-19 cells (human) (UniProt P08575); assay: as above
[7] = molecular target: human CD45BC isoform in transfected murine 300-19 cells (human) (UniProt P08575); assay: as above
[8] = molecular target: human CD45AB isoform in transfected murine 300-19 cells (human) (UniProt P08575); assay: as above
[9] = molecular target: CD45 on human peripheral blood lymphocytes (PBL) (human) (UniProt P08575); assay: cell-based or functional assay
[10] = molecular target: T1, secreted tumor-associated MUC1 from the supernatant of ZR75 tumor cells (UniProt P15941 24-1097, limits assumed); assay: ELISA on coated MUC1 from ZR75 supernatant
T1 construct: Coated on ELISA plates, or loaded on beads through MUC1 antibodies; also called secreted MUC1 from tumor cell line ZR75
T1 sequence (P15941 24-1097 limits assumed): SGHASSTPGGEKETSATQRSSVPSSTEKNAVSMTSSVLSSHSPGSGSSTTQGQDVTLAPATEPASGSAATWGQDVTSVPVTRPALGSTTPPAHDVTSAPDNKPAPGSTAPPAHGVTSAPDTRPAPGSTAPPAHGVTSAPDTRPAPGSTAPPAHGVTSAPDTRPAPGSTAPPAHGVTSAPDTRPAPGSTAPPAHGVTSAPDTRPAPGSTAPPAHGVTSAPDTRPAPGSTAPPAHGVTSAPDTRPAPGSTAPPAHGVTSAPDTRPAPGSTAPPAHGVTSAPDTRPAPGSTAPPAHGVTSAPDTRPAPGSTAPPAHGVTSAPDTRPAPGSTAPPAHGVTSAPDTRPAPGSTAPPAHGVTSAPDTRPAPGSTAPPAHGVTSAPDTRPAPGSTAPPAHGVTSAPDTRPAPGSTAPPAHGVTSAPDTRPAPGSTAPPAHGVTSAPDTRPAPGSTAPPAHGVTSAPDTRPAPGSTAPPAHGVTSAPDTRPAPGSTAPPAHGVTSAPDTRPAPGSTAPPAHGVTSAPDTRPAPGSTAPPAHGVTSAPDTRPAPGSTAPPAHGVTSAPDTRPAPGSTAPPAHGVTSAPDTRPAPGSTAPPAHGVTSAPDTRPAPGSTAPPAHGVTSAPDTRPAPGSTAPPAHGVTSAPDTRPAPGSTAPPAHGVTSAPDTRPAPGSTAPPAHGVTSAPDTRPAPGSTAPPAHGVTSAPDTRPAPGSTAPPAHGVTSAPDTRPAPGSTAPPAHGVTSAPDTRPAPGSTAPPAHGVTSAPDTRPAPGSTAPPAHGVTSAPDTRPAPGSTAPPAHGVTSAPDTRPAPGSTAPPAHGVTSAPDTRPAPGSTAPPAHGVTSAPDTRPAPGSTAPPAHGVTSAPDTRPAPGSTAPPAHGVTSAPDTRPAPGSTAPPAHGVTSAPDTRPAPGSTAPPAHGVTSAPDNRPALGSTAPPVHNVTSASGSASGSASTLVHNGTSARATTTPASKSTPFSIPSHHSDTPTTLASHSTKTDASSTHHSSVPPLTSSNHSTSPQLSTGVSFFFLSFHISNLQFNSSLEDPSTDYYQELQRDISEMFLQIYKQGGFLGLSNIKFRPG
Excerpt: Example 2, FIG. 8. MGL-Fc detects secreted MUC1 from tumor cell line ZR75. FIG. 8A, MUC1 was harvested out of the supernatant of cultured ZR75 tumor cells and coated on ELISA plates. Both MGLFc and DC-SIGNFc were used to look for carbohydrate-binding epitopes expressed on tumor-associated MUC1. […] Furthermore, EGTA, which inhibits lectin binding to carbohydrates, illustrates that the recognition of MGL to MUC1 is carbohydrate mediated. FIG. 8B, in a second experiment, the tumor-associated MUC1 were coated on fluorescent beads coupled with MUC1 antibodies. Fluorescent MUC1-coupled beads were added to MGL-expressing CHO cells and untransfected CHO cells.
This experiment is depicted in FIG. 8 of Example 2. In FIG. 8A, MUC1 was harvested out of the supernatant of cultured ZR75 tumor cells and coated on ELISA plates. Both MGLFc and DC-SIGNFc were used to look for carbohydrate-binding epitopes expressed on tumor-associated MUC1. […] Furthermore, EGTA, which inhibits lectin binding to carbohydrates, illustrates that the recognition of MGL to MUC1 is mediated by the expression of carbohydrates.

MGL-Fc (extracellular part of human MGL, amino acids 61-289, fused at the C-terminus to human IgG1-Fc) (from UniProt Q8IUN9 61-289; P01857 99-330) (Fc fusion)
OD 450 nm [1]: < 0.25 od | OD 450 nm [2]: > 0.25 od | OD 450 nm [3]: > 0.25 od | OD 450 nm [4]: > 0.25 od | OD 450 nm [5]: > 0.25 od | OD 450 nm [6]: > 0.25 od | OD 450 nm [7]: > 0.25 od | OD 450 nm [8]: > 0.25 od

Macrophage galactose-type lectin (MGL) on cells (CHO-MGL transfectants, monocyte-derived dendritic cells, dexamethasone-treated APC) (from UniProt Q8IUN9 1-316) (receptor)
proliferation of allogeneic CD4+ T cells ([methyl-3H]thymidine) in co-culture with dexamethasone-treated APC, with or without blocking anti-MGL antibodies [9]: 3 fold

B1: DC-SIGN-Fc (Fc fusion, UniProt Q9NNX6 64-404, looked up)
chain: PSSISQEQSRQDAIYQNLTQLKAAVGELSEKSKLQEIYQELTQLKAAVGELPEKSKLQEIYQELTRLKAAVGELPEKSKLQEIYQELTWLKAAVGELPEKSKMQEIYQELTRLKAAVGELPEKSKQQEIYQELTRLKAAVGELPEKSKQQEIYQELTRLKAAVGELPEKSKQQEIYQELTQLKAAVERLCHPCPWEWTFFQGNCYFMSNSQRNWHDSITACKEVGAQLVVIKSAEEQNFLQLQSSRSNRFTWMGLSDLNQEGTWQWVDGSPLLPSFKQYWNRGEPNNVGEEDCAEFSGNGWNDDKCNLAKFWICKKSAASCSRDEEQFLSPAPATPNPPPA
notes: not shown: Fc part not described
binding result [10]: no binding
